Measured values published in paper PMC12732243.

Biological target: human FSH receptor (human) (UniProt P23945)
Sequence (P23945 18-695): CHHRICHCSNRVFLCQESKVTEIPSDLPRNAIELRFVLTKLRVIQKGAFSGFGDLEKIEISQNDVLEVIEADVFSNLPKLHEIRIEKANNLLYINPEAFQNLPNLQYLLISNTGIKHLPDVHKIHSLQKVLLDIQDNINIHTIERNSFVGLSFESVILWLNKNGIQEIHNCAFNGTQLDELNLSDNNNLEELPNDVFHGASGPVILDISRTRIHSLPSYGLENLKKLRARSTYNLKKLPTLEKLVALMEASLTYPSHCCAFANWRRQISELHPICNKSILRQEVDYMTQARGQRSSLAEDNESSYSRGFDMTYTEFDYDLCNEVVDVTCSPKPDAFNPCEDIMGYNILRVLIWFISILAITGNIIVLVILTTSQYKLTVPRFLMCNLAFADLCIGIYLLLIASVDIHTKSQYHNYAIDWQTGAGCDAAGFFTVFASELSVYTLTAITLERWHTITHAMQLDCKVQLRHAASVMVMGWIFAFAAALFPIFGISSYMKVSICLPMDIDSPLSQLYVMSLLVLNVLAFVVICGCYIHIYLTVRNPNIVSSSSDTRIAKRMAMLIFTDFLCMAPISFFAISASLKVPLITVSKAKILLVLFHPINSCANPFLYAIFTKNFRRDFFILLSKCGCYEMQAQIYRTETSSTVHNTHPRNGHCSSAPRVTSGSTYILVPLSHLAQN

## recombinant monkey single-chain FSHβ/α (from UniProt Q6EV79 19-129; Q9BEH3 25-120) (ligand)
  cAMP accumulation (HTRF) in HEK 293 cells expressing hFSHR, 30 min at room temperature with 0.5 mM IBMX; EC50 of the dose-response curve: 4.9 µL/mL
